Columns and labels:
Experiment in all cases: cell-based or functional assay
[1] = target: Env of HIV-1 pseudovirus 191084 B7-19 (HIV-1)
[2] = target: Env of HIV-1 pseudovirus 191955_A11 (HIV-1)
[3] = target: Env of HIV-1 pseudovirus 263-8 (HIV-1)
[4] = target: Env of HIV-1 pseudovirus 6244_13_B5_4576 (HIV-1)
[5] = target: Env of HIV-1 pseudovirus 7030102001E5(Rev-) (HIV-1)
[6] = target: Env of HIV-1 pseudovirus 9004SS_A3_4 (HIV-1)
[7] = target: Env of HIV-1 pseudovirus AC10.0.29 (HIV-1)
[8] = target: Env of HIV-1 pseudovirus CNE20 (HIV-1)
[9] = target: Env of HIV-1 pseudovirus CNE52 (HIV-1)
[10] = target: Env of HIV-1 pseudovirus Ce1176_A3 (HIV-1)
[11] = target: Env of HIV-1 pseudovirus REJO4541.67 (HIV-1)
[12] = target: Env of HIV-1 pseudovirus RHPA4259.7 (HIV-1)
[13] = target: HIV-1 Env pseudovirus 1056_10_TA11_1826 (HIV-1)
[14] = target: HIV-1 Env pseudovirus CNE21 (HIV-1)
[15] = target: HIV-1 Env pseudovirus CNE53 (HIV-1)
[16] = target: HIV-1 Env pseudovirus Ce0393_C3 (HIV-1)
[17] = target: HIV-1 Env pseudovirus Ce0682_E4 (HIV-1)
[18] = target: HIV-1 Env pseudovirus Ce1086_B2 (HIV-1)
[19] = target: HIV-1 Env pseudovirus Ce2010_F5 (HIV-1)
[20] = target: HIV-1 Env pseudovirus HIV-0013095-2.11 (HIV-1)
[21] = target: HIV-1 Env pseudovirus PVO.4 (HIV-1)
[22] = target: HIV-1 Env pseudovirus Q461.e2 (HIV-1)
[23] = target: HIV-1 Env pseudovirus Q842.d12 (HIV-1)
[24] = target: HIV-1 Env pseudovirus ZM214M.PL15 (HIV-1)

PG16 (antibody)
IC50 [1]: 0.024 µg/mL | IC80 [1]: 0.238 µg/mL | IC50 [2]: 0.009 µg/mL | IC80 [2]: 0.042 µg/mL | IC50 [3]: 0.347 µg/mL | IC80 [3]: 4.97 µg/mL | IC50 [4]: > 50 µg/mL | IC80 [4]: > 50 µg/mL | IC50 [5]: > 50 µg/mL | IC80 [5]: > 50 µg/mL | IC50 [6]: 0.02 µg/mL | IC80 [6]: 0.111 µg/mL | IC50 [7]: 0.023 µg/mL | IC80 [7]: 0.417 µg/mL | IC50 [8]: 3.63 µg/mL | IC80 [8]: 47.2 µg/mL | IC50 [9]: 0.009 µg/mL | IC80 [9]: 0.026 µg/mL | IC50 [10]: 0.003 µg/mL | IC80 [10]: 0.011 µg/mL | IC50 [11]: 0.039 µg/mL | IC80 [11]: 13.4 µg/mL | IC50 [12]: 0.375 µg/mL | IC80 [12]: 3.92 µg/mL

N49P18.1 (antibody)
IC50 [13]: 30.5 µg/mL | IC80 [13]: > 50 µg/mL | MPI [13]: 62 | IC50 [14]: 7.93 µg/mL | IC80 [14]: 29.2 µg/mL | MPI [14]: 95 | IC50 [15]: 4.08 µg/mL | IC80 [15]: 21.8 µg/mL | MPI [15]: 97 | IC50 [16]: 10.3 µg/mL | IC80 [16]: 24.8 µg/mL | MPI [16]: 92 | IC50 [17]: 3.95 µg/mL | IC80 [17]: 21.1 µg/mL | MPI [17]: 96 | IC50 [18]: 8.98 µg/mL | IC80 [18]: 48 µg/mL | MPI [18]: 92 | IC50 [19]: 29 µg/mL | IC80 [19]: > 50 µg/mL | MPI [19]: 68 | IC50 [20]: > 50 µg/mL | IC80 [20]: > 50 µg/mL | MPI [20]: 48 | IC50 [21]: 9.65 µg/mL | IC80 [21]: 40.2 µg/mL | MPI [21]: 84 | IC50 [22]: 24.7 µg/mL | IC80 [22]: > 50 µg/mL | MPI [22]: 68 | IC50 [23]: 3.04 µg/mL | IC80 [23]: 8.13 µg/mL | MPI [23]: 100 | IC50 [24]: > 50 µg/mL | IC80 [24]: > 50 µg/mL | MPI [24]: 20

10E8 (antibody)
IC50 [1]: 5.16 µg/mL | IC80 [1]: > 10 µg/mL | IC50 [2]: 0.68 µg/mL | IC80 [2]: 3.53 µg/mL | IC50 [3]: 0.196 µg/mL | IC80 [3]: 1.73 µg/mL | IC50 [4]: 0.086 µg/mL | IC80 [4]: 0.809 µg/mL | IC50 [5]: 6.71 µg/mL | IC80 [5]: > 10 µg/mL | IC50 [6]: 1.16 µg/mL | IC80 [6]: 6.76 µg/mL | IC50 [7]: 0.132 µg/mL | IC80 [7]: 1.53 µg/mL | IC50 [8]: 1.25 µg/mL | IC80 [8]: 6.58 µg/mL | IC50 [9]: 0.304 µg/mL | IC80 [9]: 3.06 µg/mL | IC50 [10]: 0.867 µg/mL | IC80 [10]: 3.92 µg/mL | IC50 [11]: 0.203 µg/mL | IC80 [11]: 1.69 µg/mL | IC50 [12]: 0.728 µg/mL | IC80 [12]: 5.28 µg/mL

10-1074 (antibody)
IC50 [1]: 0.032 µg/mL | IC80 [1]: 0.128 µg/mL | IC50 [2]: > 50 µg/mL | IC80 [2]: > 50 µg/mL | IC50 [3]: 0.666 µg/mL | IC80 [3]: 6.53 µg/mL | IC50 [4]: 0.202 µg/mL | IC80 [4]: 0.922 µg/mL | IC50 [5]: 0.006 µg/mL | IC80 [5]: 0.021 µg/mL | IC50 [6]: 0.011 µg/mL | IC80 [6]: 0.03 µg/mL | IC50 [7]: 0.022 µg/mL | IC80 [7]: 0.11 µg/mL | IC50 [8]: < 0.001 µg/mL | IC80 [8]: 0.005 µg/mL | IC50 [9]: 1.23 µg/mL | IC80 [9]: 13.1 µg/mL | IC50 [10]: 0.019 µg/mL | IC80 [10]: 0.07 µg/mL | IC50 [11]: > 50 µg/mL | IC80 [11]: > 50 µg/mL | IC50 [12]: 0.021 µg/mL | IC80 [12]: 0.118 µg/mL

N49P7.2 (antibody)
IC50 [13]: 0.114 µg/mL | IC80 [13]: 0.771 µg/mL | MPI [13]: 100 | IC50 [14]: 48.3 µg/mL | IC80 [14]: > 50 µg/mL | MPI [14]: 51 | IC50 [15]: 0.1 µg/mL | IC80 [15]: 0.277 µg/mL | MPI [15]: 100 | IC50 [16]: 0.137 µg/mL | IC80 [16]: 0.368 µg/mL | MPI [16]: 100 | IC50 [17]: 0.067 µg/mL | IC80 [17]: 0.233 µg/mL | MPI [17]: 100 | IC50 [18]: 0.166 µg/mL | IC80 [18]: 1 µg/mL | MPI [18]: 100 | IC50 [19]: 0.398 µg/mL | IC80 [19]: 1.29 µg/mL | MPI [19]: 100 | IC50 [20]: 0.183 µg/mL | IC80 [20]: 0.931 µg/mL | MPI [20]: 97 | IC50 [21]: 0.237 µg/mL | IC80 [21]: 0.831 µg/mL | MPI [21]: 100 | IC50 [22]: 0.472 µg/mL | IC80 [22]: 2.24 µg/mL | MPI [22]: 100 | IC50 [23]: 0.045 µg/mL | IC80 [23]: 0.2 µg/mL | MPI [23]: 100 | IC50 [24]: 0.559 µg/mL | IC80 [24]: 4.53 µg/mL | MPI [24]: 100

PG9 (antibody)
IC50 [1]: 0.043 µg/mL | IC80 [1]: 0.202 µg/mL | IC50 [2]: 0.053 µg/mL | IC80 [2]: 0.154 µg/mL | IC50 [3]: 0.293 µg/mL | IC80 [3]: 1.05 µg/mL | IC50 [4]: > 50 µg/mL | IC80 [4]: > 50 µg/mL | IC50 [5]: > 50 µg/mL | IC80 [5]: > 50 µg/mL | IC50 [6]: 0.088 µg/mL | IC80 [6]: 0.251 µg/mL | IC50 [7]: 0.117 µg/mL | IC80 [7]: 0.845 µg/mL | IC50 [8]: 0.052 µg/mL | IC80 [8]: 0.278 µg/mL | IC50 [9]: 0.029 µg/mL | IC80 [9]: 0.081 µg/mL | IC50 [10]: 0.014 µg/mL | IC80 [10]: 0.044 µg/mL | IC50 [11]: 0.012 µg/mL | IC80 [11]: 0.163 µg/mL | IC50 [12]: 22.6 µg/mL | IC80 [12]: > 50 µg/mL

— patent US20240117018A1
